The values below come from PMC10598736, “Structural insights into Rad18 targeting by the SLF1 BRCT domains” (The Journal of Biological Chemistry, 2023).

Where a chain is given by its changes, count along the chain named. Names and notes keep the numbering of the source. Square brackets hold non-standard residues; d marks the D form. Ends that are not written are not given here. Peptide text beside a SMILES is read from it. pS = N[C@@H](COP(=O)(O)O)C(=O)O

Experiment [1] has as its target T1, SLF1^tBRCT (residues 1–199), WT (Homo sapiens, UniProt Q9BQI6).
T1 construct: The coding region for SLF1^tBRCT (residues 1–199) was optimized for expression in E. coli; made in house; host or cells: E. coli BL21 Rosetta (DE3)
T1 sequence (Q9BQI6 1-199): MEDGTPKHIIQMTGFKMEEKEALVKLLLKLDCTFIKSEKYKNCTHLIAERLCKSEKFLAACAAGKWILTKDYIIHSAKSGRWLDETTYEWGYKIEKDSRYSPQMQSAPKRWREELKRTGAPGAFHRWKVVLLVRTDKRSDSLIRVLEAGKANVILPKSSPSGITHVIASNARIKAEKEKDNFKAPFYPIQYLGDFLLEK
The experiment in a line: ITC of peptide binding to wild-type SLF1 tBRCT. The settings on record: 25 °C, 20 mM Tris pH 7.5, 200 mM NaCl; for Kd: 1.3 mM Rad18 peptide into 0.1 mM protein (BRCTide 6 mM into 0.2 mM), average ± SD of three independent repeats, ND = not detected. The method, then:
ITC experiments were carried out on a MicroCal ITC 200 instrument (Malvern) at 25 °C. Prior to the ITC experiments, SLF1^tBRCT was exchanged into a buffer containing 20 mM Tris (pH 7.5) and 200 mM sodium chloride and peptides (Sangon Biotech, Scilight biotechnology, Hefei Scierbio-Tech, Synpeptide) were dissolved in the same buffer. To characterize binding, a solution containing 1.3 mM Rad18 peptide or 6 mM BRCTide was injected into a 300-μl cell that stores 0.1 mM (for binding experiments with Rad18 peptides) or 0.2 mM (for the binding experiment with BRCTide) SLF1^tBRCT, 2 μl at a time. Data were analyzed with ORIGIN 7.0 (Originlab).

Experiment [2] concerns the target SLF1 tandem BRCT repeat (SLF1^tBRCT), residues 1-199, wild type (UniProt Q9BQI6). The experiment in a line: ITC; MicroCal ITC 200, 25 °C, 20 mM Tris (pH 7.5), 200 mM sodium chloride; 1.3 mM Rad18 peptide or 6 mM BRCTide injected into 0.1 mM (Rad18 peptides) or 0.2 mM (BRCTide) SLF1^tBRCT in the cell; three independent repeats. (In general: Isothermal titration calorimetry measures the heat released or taken up as one component is titrated into another.)

Experiment [3] concerns the target T2, SLF1 tandem BRCT repeat (SLF1^tBRCT), residues 1-199, wild type (UniProt Q9BQI6 1-199).
T2 construct: SMC5/6 localization factor 1 (SLF1), tandem BRCT repeat at the N-terminus, residues 1-199; coding region optimized for E. coli and synthesized; also called WT; SMC5/6 localization factor 1 tBRCT; source: E. coli BL21 Rosetta (DE3), purified (Ni-NTA, heparin, gel filtration)
T2 sequence (looked up): T1 sequence (Q9BQI6 1-199)
The experiment is described as above. Particulars: both partners purified.

The target in experiment [4] is T3, SLF1^tBRCT R50A (UniProt Q9BQI6 1-199, R50A).
T3 construct: SMC5/6 localization factor 1 (SLF1), tandem BRCT repeat, residues 1-199, with R50A; also called R50A-substituted SLF1^tBRCT; source: E. coli BL21 Rosetta (DE3), purified (same protocol as the wild type)
T3 sequence (looked up): T1 sequence (Q9BQI6 1-199) with R50A
Described as above. Particulars: both partners purified.

For experiment [5], the target named is T4, SLF1^tBRCT K56A (UniProt Q9BQI6 1-199, K56A).
T4 construct: SMC5/6 localization factor 1 (SLF1), tandem BRCT repeat, residues 1-199, with K56A; also called K56A-substituted SLF1^tBRCT; source: E. coli BL21 Rosetta (DE3), purified (same protocol as the wild type)
T4 sequence (looked up): T1 sequence (Q9BQI6 1-199) with K56A
The description is as above. Particulars: both partners purified.

The target of experiment [6] is T5, SLF1^tBRCT L142A (UniProt Q9BQI6 1-199, L142A).
T5 construct: SMC5/6 localization factor 1 (SLF1), tandem BRCT repeat, residues 1-199, with L142A; source: E. coli BL21 Rosetta (DE3), purified (same protocol as the wild type)
T5 sequence (looked up): T1 sequence (Q9BQI6 1-199) with L142A
Described as above. Particulars: both partners purified.

Experiment [7] concerns the target T6, SLF1^tBRCT I189A (UniProt Q9BQI6 1-199, I189A).
T6 construct: SMC5/6 localization factor 1 (SLF1), tandem BRCT repeat, residues 1-199, with I189A; source: E. coli BL21 Rosetta (DE3), purified (same protocol as the wild type)
T6 sequence (looked up): T1 sequence (Q9BQI6 1-199) with I189A
The experiment is described as above. The settings on record: both partners purified.

Consider “Rad18-NP: unphosphorylated Rad18 peptide of the Ser442/Ser444-containing region (SDSCNSSSSDIIRDLLE)”, for which the “binding to SLF1^tBRCT by ITC (in words)” value in experiment [1] was “undetectable”.

What is called stoichiometry N is the number of molecules, sites or subunits per partner or assembly. In experiment [2], “Rad18-pS444 peptide (from UniProt Q9NS91 436-452)” had a dH of -1.1 kcal/mol and a stoichiometry N of 1.28.

Consider “Rad18-pS442-2IA: Rad18-pS442 peptide with I446A/I447A substitution (SDSCNS[pS]SSDAARDLLE)”, for which the “binding to SLF1^tBRCT by ITC (in words)” value in experiment [1] is “undetectable”.

For “Rad18-pS442-4A: Rad18-pS442 peptide with I446A/I447A/L450A/L451A substitutions (SDSCNS[pS]SSDAARDAAE)”, the “binding to SLF1^tBRCT by ITC (in words)” value in experiment [1] was “undetectable”.

A word on the Kd: it is the free concentration of one partner at which half of the binding sites on the other are occupied at equilibrium, for simple one-to-one binding. As to `CC[C@H](C)[C@H](NC(=O)[C@H](CC(=O)O)NC(=O)[C@H](COP(=O)(O)O)NC(=O)[C@H](CO)NC(=O)[C@H](CO)NC(=O)[C@H](CO)NC(=O)[C@H](CC(N)=O)NC(=O)[C@H](CS)NC(=O)[C@H](CO)NC(=O)[C@H](CC(=O)O)NC(=O)[C@@H](N)CO)C(=O)N[C@H](C(=O)N[C@@H](CCCNC(=N)N)C(=O)N[C@@H](CC(=O)O)C(=O)N[C@@H](CC(C)C)C(=O)N[C@@H](CC(C)C)C(=O)N[C@@H](CCC(=O)O)C(=O)O)[C@@H](C)CC` [Rad18-pS444] (H-SDSCNSSS[pS]DIIRDLLE-OH), the Kd in experiment [1] stood at 19700 ± 6460 nM.

`CC[C@H](C)[C@H](NC(=O)[C@H](CC(=O)O)NC(=O)[C@H](COP(=O)(O)O)NC(=O)[C@H](CO)NC(=O)[C@H](COP(=O)(O)O)NC(=O)[C@H](CO)NC(=O)[C@H](CC(N)=O)NC(=O)[C@H](CS)NC(=O)[C@H](CO)NC(=O)[C@H](CC(=O)O)NC(=O)[C@@H](N)CO)C(=O)N[C@H](C(=O)N[C@@H](CCCNC(=N)N)C(=O)N[C@@H](CC(=O)O)C(=O)N[C@@H](CC(C)C)C(=O)N[C@@H](CC(C)C)C(=O)N[C@@H](CCC(=O)O)C(=O)O)[C@@H](C)CC` [Rad18-2P] (H-SDSCNS[pS]S[pS]DIIRDLLE-OH): binding in experiment [1] was characterised by a dissociation constant (Kd) of 15 ± 3 nM.

`CC[C@H](C)[C@H](NC(=O)[C@H](CC(=O)O)NC(=O)[C@H](CO)NC(=O)[C@H](CO)NC(=O)[C@H](COP(=O)(O)O)NC(=O)[C@H](CO)NC(=O)[C@H](CC(N)=O)NC(=O)[C@H](CS)NC(=O)[C@H](CO)NC(=O)[C@H](CC(=O)O)NC(=O)[C@@H](N)CO)C(=O)N[C@H](C(=O)N[C@@H](CCCNC(=N)N)C(=O)N[C@@H](CC(=O)O)C(=O)N[C@@H](CC(C)C)C(=O)N[C@@H](CC(C)C)C(=O)N[C@@H](CCC(=O)O)C(=O)O)[C@@H](C)CC` [Rad18-pS442] (H-SDSCNS[pS]SSDIIRDLLE-OH): in experiment [1], binding was put at a Kd of 156 ± 5 nM.

In experiment [2], “singularly phosphorylated Rad18-pS442 peptide (from UniProt Q9NS91 436-452)” displayed a dH of -1.79 kcal/mol and a stoichiometry N of 1.13.

B1: Rad18-2P-N440A peptide (peptide, UniProt Q9NS91 436-452, looked up)
peptide: SDSCAS[pS]S[pS]DIIRDLLE
notes: Rad18, human, residues 436-452, with N440A; source: synthetic peptide
Regarding B1, in experiment [3], the affinity, expressed as Kd, was 44 nM; the dH was -2.54 kcal/mol; the “stoichiometry N” value turned out to be 1.76.

For GAAYDI[pS]QVFPFAKKK (source: synthetic peptide) [BRCTide, phosphopeptide optimized for binding to the BRCA1 tBRCT], in experiment [3], the Kd was found to be 27500 nM, the dH is -0.75 kcal/mol and the “stoichiometry N” value stood at 1.12.

B2: Rad18-2P-D449A peptide (peptide, UniProt Q9NS91 436-452, looked up)
peptide: SDSCNS[pS]S[pS]DIIRALLE
notes: Rad18, human, residues 436-452, with D449A; source: synthetic peptide
With B2, in experiment [3], the affinity, expressed as Kd, was 77 nM; the dH was -1.11 kcal/mol; the “stoichiometry N” value turned out to be 1.52.

B3: Rad18-2P-R448A peptide (peptide, UniProt Q9NS91 436-452, looked up)
peptide: SDSCNS[pS]S[pS]DIIADLLE
notes: Rad18, human, residues 436-452, with R448A; source: synthetic peptide
Turning to B3, in experiment [3], binding was put at a Kd of 38 nM, the dH is -2.15 kcal/mol and the “stoichiometry N” value turned out to be 1.63.

B4: Rad18 peptide containing phosphorylated Ser442 and Ser444 (Rad18-2P) (peptide, UniProt Q9NS91 436-452, looked up)
peptide: SDSCNS[pS]S[pS]DIIRDLLE
notes: Rad18, human, Ser442/Ser444-containing region, residues 436-452; also called dually phosphorylated Rad18 peptide; source: synthetic peptide
For B4, the dH in experiment [2] is -4.04 kcal/mol; in experiment [4], -3.82 kcal/mol; in experiment [5], -0.86 kcal/mol; in experiment [6], -5.07 kcal/mol; in experiment [7] it was -2.98 kcal/mol. Also, the stoichiometry N came to 1.28 in experiment [2]; 1.45 in experiment [4]; 1.16 in experiment [5]; 1.31 in experiment [6]; 1.21 in experiment [7]. For the same molecule, the dissociation constant (Kd) in experiment [4] was 160 nM; in experiment [5] it was 2210 nM; in experiment [6] it was 116 nM; in experiment [7], 31 nM.

B5: Rad18-pS442-2LA peptide (L450A/L451A) (peptide, UniProt Q9NS91 436-452, looked up)
peptide: SDSCNS[pS]SSDIIRDAAE
notes: Rad18, human, residues 436-452, with L450A/L451A; source: synthetic peptide
For the molecule B5, in experiment [3], binding was put at a Kd of 450 nM, the dH is -2.39 kcal/mol and the “stoichiometry N” value was determined as 1.67.
